The text below walks through data of publication PMC2965138, “DEB025 (Alisporivir) Inhibits Hepatitis C Virus Replication by Preventing a Cyclophilin A Induced Cis-Trans Isomerisation in Domain II of NS5A” (PLoS ONE, 2010).

This test has as its target T1, Recombinant 15N-labelled CypA (UniProt P62937 1-165, 15N-labelled).
T1 construct: Cyclophilin A (CypA), peptidyl-prolyl cis-trans isomerase; also called 15N-CypA; source: recombinant, produced and purified as described previously [18]
The test is described as follows: NMR titration; 15N-labelled CypA (100 µM) mixed with increasing concentrations of unlabelled peptide (0 to 2.5 mM); 1H,15N HSQC at each step; KD fitted from combined chemical shift perturbations. Conditions: both partners purified.

B1: Pep-WT (residues 308-327 of NS5A from HCV GT1b Con1) (peptide)
peptide: KFPRAMPIWARPDYNPPLLE
notes: NS5A domain II of hepatitis C virus genotype 1b (Con1), residues 308-327; numbers count on: NS5A itself; also called WT peptide; Pep-WT peptide; source: synthetic peptide, bought: Neosystems (Strasbourg, France), purity greater than 95%
Take B1: the Kd – broadly, the constant that tells how readily two partners part at equilibrium – stood at 802 µM.

B2: Pep-D320E (residues 308-327 of NS5A from HCV GT1b Con1 with D320E) (peptide)
peptide: KFPRAMPIWARPEYNPPLLE
notes: numbers count on: NS5A itself; also called D320E peptide; Pep-D320E peptide; source: synthetic peptide, bought: Neosystems (Strasbourg, France), purity greater than 95%
In the case of B2, the Kd came out at 1230 µM.
